The nature of this series: label from the status in PepcDB records.
“MNSGTLLGKASISFSRPVYIQSCASVVGPKEGDGPLKNCFDMICDDPMFGEKKWEAAESAMQKEAAVLAIGKAGLTPDDIRFVFAGDLLAQTIASSFGIAEMGIPFFGLYGACSTMGESLSLGAIAVSAGYGHHILCATSSHFATAEKEFRFPLGYGCQRPLSATWTVTGSAACILSPEAPHPSEIVGSSLLRSTLGSVAITGITTGKVIDFGFRDSLNMGGCMAPAACDTIYRNFEDFGRSVNDYDAVLTGDLGVVGRQILLDLLKEKNIDLSSVHQDCGLLIYDNQKQDTHSGGSGCGCAASVLAAYILPRVVSGFWKRVLFVPTGAMLSKVSFNEGESVAGIAHGVVIEHISKETEV”: the protein production result is given as “failed”.
Take “MNSLPIADLLVSAVIAACIVLSAMRGVIAEAGSMAAWVVSFFFAKLFAASFADLAFASFQPRLFALALSFISLFVIACLIQKMLRSLLTSAVSAVGLGFANRILGGVFGALKGVLIVTLLVMLASKTDLPDTEEWRQSYTLPFFVSLSEAVLNHSGGTAETPEDD”: the protein production entry is listed as “failed”.
Take “MNSPANITDPLVLFMPSGKRGRFPVGTPVLDAARQLGVYVESVCGGRATCGRCQIEVQEGNFAKHKIVSSNDHISPKGPKEERYERVRGLPERRRLSCSAQILGDLVIDVPQDTVINAQTIRKDADTRVIARDTAIRMCYVEIEEPDMHKPLGDLDRLKIALMKDWGFKNLEFDFYLLPQVQGILRKGNWTATAAIHKDADSDIARVIALWPGLKNEAYGLACDIGSTTIAMHLVSLLSGRVAASSGTSNPQIRFGEDLMSRVSYVMMNPDGREGMTVAVREAISSLVDKVCAEGNVQRNDILDSVFVGNPIMHHLFLGIDPTELGGAPFALAVSGAVRIKASDIGLKLNQGARLYMLPCIAGHVGADAAAVTLSEGPHRQDEMMLIVDVGTNAEIVLGNRARVVAASSPTGPAFEGAEISGGQRAAPGAIERVRIDPDTLEPKYRVIGSELWSDEPGFLDSVQATGVTGICGSGIIEIVAEMYLAGIISEDGVVDGSLAARSPRVTANGRTFSYVLKEGEPKITITQTDVRAIQLAKAALYAGTKLLMEKQNTEHVDRIHFAGAFGSFIDPKYAMVLGLIPDCDLDKVSAVGNAAGAGARMALLNRGYRREIEETVSQIEKIETALEPKFQEHFVYAMALPNKVDPFPKLSAAVKLPPRKTVSEDGIAGDATPRRRSREGHAARRSRE”: the protein production entry was “failed”.
Take “MNSQPRHFAPLARLLHWLMALLIIAMLFIGAGMVASVSARHEWLIHLHKPLGIAILLLVLVRLWVRFYTRQPPLPADLPGWQVLAAKASHVLLYALMLSLPLLGWGMISAAGDPVMLGSSLQLPAILPANAQLFAVLRKAHGYLAYLLFFTVLLHLAAALFHGWVRRDGVLQSMLRGRG”: the protein production entry is recorded as “not failed”.
In the case of “MNSRLGTTASSITRSALPTTVVWDPAMTAYNFGPGHPMAPQRLELTARLAESLGLFNHNHVAVEAPTVATDVELFSVHSRDYVEAVRRVSADPSAPEEERGLGTEDDPAFAGMHEASARLAGGSLLAAETILSGQAVRAVNFSGGMHHAARERASGFCVYNDVALAIQKLLDGGVQRVVSIDVDAHHGDGTQSIFWNDPRVMTISLHETGLTLFPGTGFANETGGPDAPGTAVNVALPAFTGDAAWLRAFHAVVPQLVGAFQPEVIVSQHGCDSHRDDPLTHLNLSVDGQREAASAVAGLAARYCDNRWIATGGGGYDVTGVVPRAWSHLIGMVTQRPVPLKTPVPEAWRSYVKETYGVWAPESMSDDVDVWWRSWEVGYNPADEVDRTVIATRKEIFPLYGLDPWFD”, the protein production result is listed as “failed”.
For “MNSYDETVQDIITAVGGKDNIEEVFHCVARLRFYLKDSTQLNKTILQKNSNIYDFKFENNQLQILIGSDVNKYYKALMKCINEDKDFSKAKKGNIKMSKSSDKDKQLAEQIVKLVGGKENVNSLIHCVTRLRFKLKDESKADDEAIKNLHGVMGVAHAGGQYQVIIGNNVTDIYDQVMPLLGLSSEQEVTQDDEKEGNIFSRLVALISSLFMPLLGVMTGAGMLKGLLVLFGVLGWVKQGTGTYMILNAAADALFYFLPILLGFTAGKTFKINPFVGAVTGGALVYPSMVAAATAHKAITFLGIPVNLMNYSQTMLPIVIAIWGMSWLEKGTKKIIPSSVRNLFVPLLDLMIVVPLAYIIIGPIMQTLSQWLSEASLWIYGILPVAAGFIIGGIWQGAVILGLHWAFIPVLMNNLMTNHFDPINGIMYCTLFGQVGACFAMGLKAKDKNFKEIAIPAAISGLVGITEPIIYGVTLPHKKAFAFASVGSAFGGAIAAACHAGMYTMPGGGIFGIPAFINPKGINMQFYGFLISLLVAIVVSFVLTMIFGDTVVPSAPKAKVQVKKAEFKDQAIYSPLEGTVVELKDVKDPVFSAGTIGKGIAVKPTNNEVRAPFDGKVISVFPTKHAIGLKSENGVELLIHLGIDTVNLQGKYFDSMVKDGQEIKKGDLIEKFDVQAIQEAGYDTVVPIVVTNSNNFDDVISEKKNGDKVNFGDQLLMATVEQDVNVQDSSIAKA”, the protein production result is reported as “failed”.
On to “MNTEPANVEDKLPMNILVLGSDEKQGGRSDTIMLVHIQKDFQPIVISIPRDTRVKVEGIKGYSKINAAYAYGKSKLAVKTVEDILGIKIDKYVVVNYEAVEKIVDLVGGVDVEVPFHLYYVDTTPGKELYINIPAGLQHLDGKKAVEFLRWRHNSNGKEYGRGGDLGRIEMQRKLLYALIEKMLKPQNIVRLPLIVQTVSKYTDHNFTKNEIMWFIQNVGKFNTQNIMMTILPGYPKYIDRVSYYILNEEKCRALIDDLNEPEVLKDSMKIKILSKSFDDKATQLKNDLESKGYSNVNLGRVSKLESSEVELKRVNRKYLELLKNDIDLSTYQVVYSPDYSDKFDVYIKVKLEHHHHHH”, for which the protein production entry is on record as “not failed”.
“MNTHYVGPVLYTPKENVSEKLLKLFDADQPIIFCYTARFYDNVGESGKAIFDNMIKIADKIDASIIISTGNKKDELLALDIASKELKSGKVSIVDYVPLDMAYEKSDLVIHHGGHGSCLAQFYYGVPSVIIPTHTEREYNARMCEKLHVGKMLPRRELNSANLKNCINDVLNDITYKKSVRDWKEKVSGLEHHHHHH”: the protein production entry is listed as “failed”.
The same measure for “MNTLLLTAGRVLLALYFLIPGIMKFVSWDMHIQLMEKHEMPFVPVLLGLAGVFQIGAAILLIANRFTWIVALLLAGLVLVINVSLHDFWNYSGMEGAHEMQNFIKNLGIFAGLLVLSGHSMPECCKTKKKS”: “failed”; for “MNTMEEKYILSDRGKVYYWIKESNSVFAKNLIFLPGLTANHHLFDFQIQYFSKNHNVLVWDAPAHGKSRPYLDFSYSNLVEELKVILDKQNMKKVVLIGQSAGGFVAQSFIVKYPNMVEGLMMIGTCPYGTDYYSKSDIFWLKQTEWMLKLFPDKLLRNIISKMCGATSEGRRSMLKMLEGYEKKELCHLMYLGFAGFIPEIQDLNIHCPVCLVVGDKDKTGKVRKYNEQWHNKTGYPLHIIKNASHNVNVDKPNELNQIMDIFIKQLN”: “not failed”; for “MNTSCTSYHSMALSESQRDILGMIATNHQLHDILTAICLMIDAQDPGTLCSILLTDAQGKHLLKGAAPGLPPAYSDAIHGLPIGPQEGTCGTAAFRRELVVTADIARDPSWERFRSLALGYNLRSCWSLPLLSHEGSVLGTFALYQDQAIAPSEVQIHRLTCAAQLAAIAIRH”: “failed”.
As for “MNTSGIGGYFRQGLFGRDLLASVVVFLVALPLCMGIAIASGMPPAAGLITGIVGGLVVGFLAGSPLQVSGPAAGLAVLVFELVREHGAVALGPVILVAGAIQLIAGLCRAGVWFRMTSPAVVAGMLSGIGILIVASQAHVLMDAAPKARGLENFAALPGVLWQAISEGTGRNALFVGLATIGIILAWDKLRPQRLRFLPGALIAVVVVTATVQLQGLNVNKVDVPTNLFSAISIPSISDIFGVFNHTLLVSAVTFAFIASAETLLSAAAVDRMHQGARTQYDRELAAQGVGNMLCGFLGALPMTGVIVRSAANVQAGAATRASTILHGSWLLVFAMLLPWLLRMTPVACLAGILVYTGVKMIKIGQVKELATYGRGTAAIYLATTFAIVATDLLTGVLIGFGLSLFRLALHSSRLKVEVREHADKKDEMHLTLQGSATFLKVPAMARTLESVPPNTALHLDVAKLHHVDHACIELLRDWSRNAASRGCELVVDWKELDRRVEGQPTVDGVLVEQRVEQAKAA”, the protein production entry was “failed”.

For the origin of these results see a protein production outcome set (Wang et al. 2014).
